Square brackets hold non-standard residues; d marks the D form. Ends that are not written are not given here. pT = C[C@@H](OP(=O)(O)O)[C@H](N)C(=O)O; pS = N[C@@H](COP(=O)(O)O)C(=O)O

The assay deals with GST-Fbw7 (residues 263 to 707)-Skp1 complex, Q969H0. Kind of assay: AlphaScreen or HTRF. On the technique in general: Alpha assays give light when donor and acceptor beads are brought close together.

B1: Myc T58 degron peptide, diphosphorylated (pT58/pS62) (peptide)
peptide: EDIWKKFELLP[pT]PPL[pS]PSRR
For orientation: IC50 means the concentration that inhibits the measured activity by half. Lower therefore signals greater potency in that assay. Take B1: the IC50 was 9.8 nM.
